In FireProtDB (doi:10.1021/bi00485a005):

Conditions: Aspergillus oryzae (strain ATCC 42149 / RIB 40), 25 °C, Urea, Fluorescence, NaCl 0.2 M, whole UniProt chain shown

B1: Guanyl-specific ribonuclease T1 wild type, P00651 (protein)
chain: MMYSKLLTLTTLLLPTALALPSLVERACDYTCGSNCYSSSDVSTAQAAGYQLHEDGETVGSNSYPHKYNNYEGFDFSVSSPYYEWPILSSGDVYSGGSPGADRVVFNENNQLAGVITHTGASGNNFVECT
- denaturant m value (pH 6.02, MES 30 mM): 1.25 kcal/mol/M
- denaturant midpoint (higher = more stable) (pH 6.02, MES 30 mM): 6.58 M
- unfolding free energy (pH 6.02, MES 30 mM): 8.24 kcal/mol
- denaturant m value (pH 8.02, HEPPSO 30 mM): 1.35 kcal/mol/M
- denaturant midpoint (higher = more stable) (pH 8.02, HEPPSO 30 mM): 4.38 M
- unfolding free energy (pH 8.02, HEPPSO 30 mM): 5.92 kcal/mol
